From patent publication US8748182B2, “Mutant proteins and methods for producing them” (Heptares Therapeutics Limited, priority 2007, dated 2014)
Changes are numbered by the printed parent chain. In names and notes the source's numbering stands.

B1: A86L: NTR point mutant (protein, UniProt P20789 1-424, looked up, variant A86L)
Neurotensin receptor type 1: MHLNSSVPQGTPGEPDAQPFSGPQSEMEATFLALSLSNGSGNTSESDTAGPNSDLDVNTDIYSKVLVTAIYLALFVVGTVGNSVTLFTLARKKSLQSLQSTVHYHLGSLALSDLLILLLAMPVELYNFIWVHHPWAFGDAGCRGYYFLRDACTYATALNVASLSVERYLAICHPFKAKTLMSRSRTKKFISAIWLASALLAIPMLFTMGLQNRSGDGTHPGGLVCTPIVDTATVKVVIQVNTFMSFLFPMLVISILNTVIANKLTVMVHQAAEQGRVCTVGTHNGLEHSTFNMTIEPGRVQALRHGVLVLRAVVIAFVVCWLPYHVRRLMFCYISDEQWTTFLFDFYHYFYMLTNALFYVSSAINPILYNLVSANFRQVFLSTLACLCPGWRHRRKKRPTFSRKPNSMSSNHAFSTSATRETLY
B2: R395A: NTR point mutant (protein, UniProt P20789 1-424, looked up, variant R395A)
Neurotensin receptor type 1: B1 Neurotensin receptor type 1 with L86A, R395A
B3: F380A: NTR point mutant (protein, UniProt P20789 1-424, looked up, variant F380A)
Neurotensin receptor type 1: B1 Neurotensin receptor type 1 with L86A, F380A
B4: V313A: NTR point mutant (protein, UniProt P20789 1-424, looked up, variant V313A)
Neurotensin receptor type 1: B1 Neurotensin receptor type 1 with L86A, V313A
B5: P389A: NTR point mutant (protein, UniProt P20789 1-424, looked up, variant P389A)
Neurotensin receptor type 1: B1 Neurotensin receptor type 1 with L86A, P389A
B6: A385L: NTR point mutant (protein, UniProt P20789 1-424, looked up, variant A385L)
Neurotensin receptor type 1: B1 Neurotensin receptor type 1 with L86A, A385L
B7: 1253A: NTR point mutant (Ile 253) (protein, UniProt P20789 1-424, looked up, variant I253A)
Neurotensin receptor type 1: B1 Neurotensin receptor type 1 with L86A, I253A
B8: L308A: NTR point mutant (protein, UniProt P20789 1-424, looked up, variant L308A)
Neurotensin receptor type 1: B1 Neurotensin receptor type 1 with L86A, L308A
B9: A69L: NTR point mutant (protein, UniProt P20789 1-424, looked up, variant A69L)
Neurotensin receptor type 1: B1 Neurotensin receptor type 1 with A69L, L86A
B10: R183A: NTR point mutant (protein, UniProt P20789 1-424, looked up, variant R183A)
Neurotensin receptor type 1: B1 Neurotensin receptor type 1 with L86A, R183A
B11: G215A: NTR point mutant (protein, UniProt P20789 1-424, looked up, variant G215A)
Neurotensin receptor type 1: B1 Neurotensin receptor type 1 with L86A, G215A
B12: G306A: NTR point mutant (protein, UniProt P20789 1-424, looked up, variant G306A)
Neurotensin receptor type 1: B1 Neurotensin receptor type 1 with L86A, G306A
B13: S373A: NTR point mutant (protein, UniProt P20789 1-424, looked up, variant S373A)
Neurotensin receptor type 1: B1 Neurotensin receptor type 1 with L86A, S373A
B14: A177L: NTR point mutant (protein, UniProt P20789 1-424, looked up, variant A177L)
Neurotensin receptor type 1: B1 Neurotensin receptor type 1 with L86A, A177L
B15: M250A: NTR point mutant (protein, UniProt P20789 1-424, looked up, variant M250A)
Neurotensin receptor type 1: B1 Neurotensin receptor type 1 with L86A, M250A
B16: V309A: NTR point mutant (protein, UniProt P20789 1-424, looked up, variant V309A)
Neurotensin receptor type 1: B1 Neurotensin receptor type 1 with L86A, V309A
B17: G390A: NTR point mutant (protein, UniProt P20789 1-424, looked up, variant G390A)
Neurotensin receptor type 1: B1 Neurotensin receptor type 1 with L86A, G390A
B18: 1260A: NTR point mutant (Ile 260) (protein, UniProt P20789 1-424, looked up, variant I260A)
Neurotensin receptor type 1: B1 Neurotensin receptor type 1 with L86A, I260A
B19: T294A: NTR point mutant (protein, UniProt P20789 1-424, looked up, variant T294A)
Neurotensin receptor type 1: B1 Neurotensin receptor type 1 with L86A, T294A
B20: F342A: NTR point mutant (protein, UniProt P20789 1-424, looked up, variant F342A)
Neurotensin receptor type 1: B1 Neurotensin receptor type 1 with L86A, F342A
B21: E166A: NTR point mutant (protein, UniProt P20789 1-424, looked up, variant E166A)
Neurotensin receptor type 1: B1 Neurotensin receptor type 1 with L86A, E166A
B22: V165A: NTR point mutant (protein, UniProt P20789 1-424, looked up, variant V165A)
Neurotensin receptor type 1: B1 Neurotensin receptor type 1 with L86A, V165A
B23: A73L: NTR point mutant (protein, UniProt P20789 1-424, looked up, variant A73L)
Neurotensin receptor type 1: B1 Neurotensin receptor type 1 with A73L, L86A
B24: N370A: NTR point mutant (protein, UniProt P20789 1-424, looked up, variant N370A)
Neurotensin receptor type 1: B1 Neurotensin receptor type 1 with L86A, N370A
B25: V360A: NTR point mutant (protein, UniProt P20789 1-424, looked up, variant V360A)
Neurotensin receptor type 1: B1 Neurotensin receptor type 1 with L86A, V360A
B26: L310A: NTR point mutant (protein, UniProt P20789 1-424, looked up, variant L310A)
Neurotensin receptor type 1: B1 Neurotensin receptor type 1 with L86A, L310A
B27: K397A: NTR point mutant (protein, UniProt P20789 1-424, looked up, variant K397A)
Neurotensin receptor type 1: B1 Neurotensin receptor type 1 with L86A, K397A
B28: H393A: NTR point mutant (protein, UniProt P20789 1-424, looked up, variant H393A)
Neurotensin receptor type 1: B1 Neurotensin receptor type 1 with L86A, H393A
B29: Y349A: NTR point mutant (protein, UniProt P20789 1-424, looked up, variant Y349A)
Neurotensin receptor type 1: B1 Neurotensin receptor type 1 with L86A, Y349A
B30: C386A: NTR point mutant (protein, UniProt P20789 1-424, looked up, variant C386A)
Neurotensin receptor type 1: B1 Neurotensin receptor type 1 with L86A, C386A
B31: Nag7m: NTR with F358A+A86L+I260A+F342A (protein)
chain: TSESDTAGPNSDLDVNTDIYSKVLVTAIYLALFVVGTVGNSVTLFTLARKKSLQSLQSTVHYHLGSLALSDLLILLLAMPVELYNFIWVHHPWAFGDAGCRGYYFLRDACTYATALNVASLSVERYLAICHPFKAKTLMSRSRTKKFISAIWLASALLAIPMLFTMGLQNRSGDGTHPGGLVCTPIVDTATVKVVIQVNTFMSFLFPMLVISILNTVAANKLTVMVHQAAEQGRVCTVGTHNGLEHSTFNMTIEPGRVQALRHGVLVLRAVVIAFVVCWLPYHVRRLMFCYISDEQWTTALFDFYHYFYMLTNALAYVSSAINPILYNLVSANFRQVFLSTLACLCPGWRHRRKKRPTFSRKPNSMSSNHAFSTSATRETLY
B32: Nag7n: NTR with F358A+H103A+I260A+F342A (protein)
chain: B31 chain with L44A, H61A
B33: Wildtype NTR: wild-type rat neurotensin receptor (protein)
chain: B31 chain with L44A, A218I, A300F, A316F

Assay: Thermostability of neurotensin receptor (NTR) mutants (3H-neurotensin binding)
Assay type: physicochemical
Conditions: Ligand(+) format
Description: FIG. 12 Flow chart showing the two different assay formats of ligand (+) and ligand (−) used to determine receptor thermostablity.
3. Mutants tested for thermostability by heating in the absence of the agonist were re-tested using a slightly different assay where the mutants were heated in the presence of ^3H-neurotensin (Ligand(+) format in FIG. 12). […] All of these also have increased thermostability. • 5. Preferred combinations are • a. Nag7m F358A+A86L+1260A+F342A Tm 51° C. (neurotensin bound) • b. Nag7n F358A+H103A+1260A+F342A Tm 51° C. (neurotensin bound) • Wildtype NTR has a Tm of 35° C. with neurotensin bound.

Molecule	thermostability, heated in the presence of 3H-neurotensin
B1	improved thermostability
B2	improved thermostability
B3	improved thermostability
B4	improved thermostability
B5	improved thermostability
B6	improved thermostability
B7	improved thermostability
B8	improved thermostability
B9	improved thermostability
B10	improved thermostability
B11	improved thermostability
B12	improved thermostability
B13	improved thermostability
B14	improved thermostability
B15	improved thermostability
B16	improved thermostability
B17	improved thermostability
B18	improved thermostability
B19	improved thermostability
B20	improved thermostability
B21	improved thermostability
B22	improved thermostability
B23	improved thermostability
B24	improved thermostability
B25	improved thermostability
B26	improved thermostability

Same assay, conditions: heated in the absence of the agonist

Molecule	thermostability, 3H-neurotensin (agonist) binding after the heating step
B1	small but significant increase in thermostability
B27	small but significant increase in thermostability
B6	small but significant increase in thermostability
B28	small but significant increase in thermostability
B29	small but significant increase in thermostability
B30	small but significant increase in thermostability

Same assay, conditions: neurotensin bound

Molecule	Tm (neurotensin bound) [°C]
B31	51
B32	51
B33	35
